B1: Protein maternal effect lethal 26 (Caenorhabditis elegans), Q94420 (parent)
chain: MEPRIDGGVFIGGIGNSGNEMCSNGVPALGVSSQTEIKVEKVQHTWTVKNFSHCYQEYLENFVYLQRGDEQLTWSIKIYPKGNGENNKDFVFLCLNRVINNNVKAGKIGFKSQFKLRTAENKDIEMRIHPNPSHSDYVSYIKRDVLFPQIMPRDMIIVNVEIDVAVETITTTNEPIQFEPTNSEQQLIEDYQRLFSQELLCDFAINVNGKIIRAHKAVLAARSPVFNAMLTHQDTDEAKSSMMYINDMDYDVIYEMVYYIYCGRCNKDITDMATALLIAADKYRLEELKSHCEKYLVENINIENACSLLIIGDLYSAPKLRKRAVTYILARPKNVTGTPGWEDILKGHPNLITDIFSQIDRQSSTGATSSVSNLPGVPMDIPGITGNIVPPPSGL
partner: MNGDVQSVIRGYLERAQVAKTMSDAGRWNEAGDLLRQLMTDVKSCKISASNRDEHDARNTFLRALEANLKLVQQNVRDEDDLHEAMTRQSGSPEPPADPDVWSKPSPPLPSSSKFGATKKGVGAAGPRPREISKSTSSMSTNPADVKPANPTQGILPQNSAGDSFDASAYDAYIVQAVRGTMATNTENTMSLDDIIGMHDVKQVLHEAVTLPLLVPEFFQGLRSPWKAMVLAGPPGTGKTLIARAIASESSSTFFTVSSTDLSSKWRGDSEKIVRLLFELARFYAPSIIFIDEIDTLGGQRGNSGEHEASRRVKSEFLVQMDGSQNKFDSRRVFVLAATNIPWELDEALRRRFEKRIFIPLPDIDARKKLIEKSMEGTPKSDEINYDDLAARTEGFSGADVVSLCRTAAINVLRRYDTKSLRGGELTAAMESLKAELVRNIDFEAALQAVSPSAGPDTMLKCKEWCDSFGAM
B2: Protein maternal effect lethal 26 (Caenorhabditis elegans), Q94420 (parent)
chain: B1 chain
B3: Meiotic spindle formation protein mei-1 (Caenorhabditis elegans), P34808 (parent)
chain: B1 partner
partner: B1 chain

Variants of: B1
Details: with ktna1_caeel mei-1, P34808

**Q.** How did the “effect of a mutation on the interaction” value turn out when MEPRIDGGVFIGGIGNSGNEMCSNGVPALGVSSQTEIKVEKVQHTWTVKNFSHCYQEYLENFVYLQRGDEQLTWSIKIYPKGNGENNKDFVFLYLNRVINNNVKAGKIGFKSQFKLRTAENKDIEMRIHPNPSHSDYVSYIKRDVLFPQIMPRDMIIVNVEIDVAVETITTTNEPIQFEPTNSEQQLIEDYQRLFSQELLCDFAINVNGKIIRAHKAVLAARSPVFNAMLTHQDTDEAKSSMMYINDMDYDVIYEMVYYIYCGRCNKDITDMATALLIAADKYRLEELKSHCEKYLVENINIENACSLLIIGDLYSAPKLRKRAVTYILARPKNVTGTPGWEDILKGHPNLITDIFSQIDRQSSTGATSSVSNLPGVPMDIPGITGNIVPPPSGL [C94Y] was run?
**A.** disrupting interaction strength

Variants of: B2
Details: with pp4r1_caeel ppfr-1, G5ECH5
Chain of pp4r1_caeel ppfr-1, G5ECH5 (G5ECH5 whole entry): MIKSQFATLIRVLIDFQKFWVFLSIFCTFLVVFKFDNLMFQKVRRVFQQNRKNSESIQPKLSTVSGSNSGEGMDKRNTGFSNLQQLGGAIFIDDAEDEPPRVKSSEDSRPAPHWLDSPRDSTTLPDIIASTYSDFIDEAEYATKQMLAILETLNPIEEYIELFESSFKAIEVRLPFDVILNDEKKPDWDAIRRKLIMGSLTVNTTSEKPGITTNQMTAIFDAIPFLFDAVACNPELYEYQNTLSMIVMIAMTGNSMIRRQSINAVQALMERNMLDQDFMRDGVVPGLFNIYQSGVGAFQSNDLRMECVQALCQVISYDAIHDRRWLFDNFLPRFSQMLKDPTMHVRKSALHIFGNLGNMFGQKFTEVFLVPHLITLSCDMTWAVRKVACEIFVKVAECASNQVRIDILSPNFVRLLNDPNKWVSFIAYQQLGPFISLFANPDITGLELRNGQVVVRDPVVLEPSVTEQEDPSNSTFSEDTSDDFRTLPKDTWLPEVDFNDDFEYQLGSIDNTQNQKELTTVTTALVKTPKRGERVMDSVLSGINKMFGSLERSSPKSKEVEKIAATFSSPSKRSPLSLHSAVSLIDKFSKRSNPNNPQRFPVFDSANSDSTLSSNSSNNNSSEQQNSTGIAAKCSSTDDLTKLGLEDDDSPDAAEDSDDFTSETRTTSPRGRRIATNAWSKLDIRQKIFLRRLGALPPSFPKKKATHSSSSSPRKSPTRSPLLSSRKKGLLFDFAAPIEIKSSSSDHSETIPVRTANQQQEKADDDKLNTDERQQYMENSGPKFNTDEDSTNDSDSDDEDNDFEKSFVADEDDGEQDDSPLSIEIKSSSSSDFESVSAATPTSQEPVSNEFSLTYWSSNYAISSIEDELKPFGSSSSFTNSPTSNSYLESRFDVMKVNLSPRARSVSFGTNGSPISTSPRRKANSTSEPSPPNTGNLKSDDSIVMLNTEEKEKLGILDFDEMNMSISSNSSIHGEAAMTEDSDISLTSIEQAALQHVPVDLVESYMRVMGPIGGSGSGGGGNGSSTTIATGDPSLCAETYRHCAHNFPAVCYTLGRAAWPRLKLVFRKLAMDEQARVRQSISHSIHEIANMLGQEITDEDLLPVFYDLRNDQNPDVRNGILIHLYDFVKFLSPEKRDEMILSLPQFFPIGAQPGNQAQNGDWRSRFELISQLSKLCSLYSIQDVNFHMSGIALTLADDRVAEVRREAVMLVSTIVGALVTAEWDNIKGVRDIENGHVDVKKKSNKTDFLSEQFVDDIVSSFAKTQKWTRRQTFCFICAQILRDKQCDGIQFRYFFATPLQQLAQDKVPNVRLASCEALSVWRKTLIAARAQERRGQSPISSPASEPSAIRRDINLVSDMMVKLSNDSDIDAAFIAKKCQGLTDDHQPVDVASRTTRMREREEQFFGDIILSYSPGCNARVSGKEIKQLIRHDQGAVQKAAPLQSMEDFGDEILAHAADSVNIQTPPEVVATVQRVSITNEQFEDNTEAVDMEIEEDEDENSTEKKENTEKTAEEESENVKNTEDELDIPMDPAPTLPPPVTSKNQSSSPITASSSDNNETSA

**Q.** MEPRIDGGVFIGGIGNSGNEMCSNGVPALGVSSQTEIKVEKVQHTWTVKNFSHCYQEYLENFVYLQRGDEQLTWSIKIYPKGNGENNKDFVFLYLNRVINNNVKAGKIGFKSQFKLRTAENKDIEMRIHPNPSHSDYVSYIKRDVLFPQIMPRDMIIVNVEIDVAVETITTTNEPIQFEPTNSEQQLIEDYQRLFSQELLCDFAINVNGKIIRAHKAVLAARSPVFNAMLTHQDTDEAKSSMMYINDMDYDVIYEMVYYIYCGRCNKDITDMATALLIAADKYRLEELKSHCEKYLVENINIENACSLLIIGDLYSAPKLRKRAVTYILARPKNVTGTPGWEDILKGHPNLITDIFSQIDRQSSTGATSSVSNLPGVPMDIPGITGNIVPPPSGL [C94Y] was tested. Which “effect of a mutation on the interaction” value did it give?
**A.** disrupting interaction strength

Variants of: B3
Details: with mel26_caeel mel-26, Q94420

**Q.** MNGDVQSVIRGYLERAQVAKTMSDAGRWNEAGDLLRQLMTDVKSCKISASNRDEHDARNTFLRALEANLKLVQQNVRDEDDLHEAMTRQSGAPEPPADPDVWSKPSPPLPSSSKFGATKKGVGAAGPRPREISKSTSSMSTNPADVKPANPTQGILPQNSAGDSFDASAYDAYIVQAVRGTMATNTENTMSLDDIIGMHDVKQVLHEAVTLPLLVPEFFQGLRSPWKAMVLAGPPGTGKTLIARAIASESSSTFFTVSSTDLSSKWRGDSEKIVRLLFELARFYAPSIIFIDEIDTLGGQRGNSGEHEASRRVKSEFLVQMDGSQNKFDSRRVFVLAATNIPWELDEALRRRFEKRIFIPLPDIDARKKLIEKSMEGTPKSDEINYDDLAARTEGFSGADVVSLCRTAAINVLRRYDTKSLRGGELTAAMESLKAELVRNIDFEAALQAVSPSAGPDTMLKCKEWCDSFGAM [S92A] was tested. Which “effect of a mutation on the interaction” value did it give?
**A.** disrupting interaction strength
